Data on 1 substance can be found in US20100204147A1, “Methods For Delivering Thymosin Beta 4, Analogues, Isoforms and Other Derivatives” (REGENERX BIOPHARMACEUTICALS, INC., priority 2003, published 2010).

This experiment concerns the target T1, fibrinogen (Homo sapiens, UniProt P02671).
T1 construct: purchased Enzyme Research Laboratories (South Bend, Ind.)
T1 sequence (P02671 20-644 isoform P02671-2 limits assumed): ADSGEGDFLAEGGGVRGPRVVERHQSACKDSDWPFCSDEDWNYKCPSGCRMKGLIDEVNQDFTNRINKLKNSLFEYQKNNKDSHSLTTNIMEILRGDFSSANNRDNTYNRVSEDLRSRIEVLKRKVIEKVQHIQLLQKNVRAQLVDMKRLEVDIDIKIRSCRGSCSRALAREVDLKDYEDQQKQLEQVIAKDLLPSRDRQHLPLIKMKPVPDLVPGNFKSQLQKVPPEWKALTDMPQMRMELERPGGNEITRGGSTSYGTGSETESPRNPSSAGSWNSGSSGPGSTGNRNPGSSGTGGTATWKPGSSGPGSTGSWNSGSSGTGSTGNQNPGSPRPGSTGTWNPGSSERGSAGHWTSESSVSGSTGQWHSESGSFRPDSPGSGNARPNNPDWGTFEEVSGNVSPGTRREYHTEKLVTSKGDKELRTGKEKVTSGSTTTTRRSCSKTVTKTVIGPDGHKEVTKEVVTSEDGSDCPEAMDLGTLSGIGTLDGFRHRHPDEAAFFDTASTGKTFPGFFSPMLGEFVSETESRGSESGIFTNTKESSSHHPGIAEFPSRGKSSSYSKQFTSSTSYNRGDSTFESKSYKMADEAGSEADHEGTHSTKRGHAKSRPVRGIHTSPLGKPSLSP
T1 sequence (P02675 31-491 partner): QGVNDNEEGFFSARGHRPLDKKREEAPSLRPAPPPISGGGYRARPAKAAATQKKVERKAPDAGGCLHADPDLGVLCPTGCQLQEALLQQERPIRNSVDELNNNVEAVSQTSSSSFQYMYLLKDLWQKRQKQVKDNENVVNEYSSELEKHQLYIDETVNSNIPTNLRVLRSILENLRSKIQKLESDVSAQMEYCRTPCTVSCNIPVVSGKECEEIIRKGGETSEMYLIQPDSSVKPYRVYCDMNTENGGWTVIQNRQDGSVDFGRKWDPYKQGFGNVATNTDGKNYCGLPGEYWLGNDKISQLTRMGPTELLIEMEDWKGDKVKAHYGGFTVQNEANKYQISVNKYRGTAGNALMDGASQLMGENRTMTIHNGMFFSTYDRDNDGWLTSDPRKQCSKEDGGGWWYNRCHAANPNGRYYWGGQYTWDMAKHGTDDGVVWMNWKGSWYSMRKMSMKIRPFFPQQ
T1 sequence (P02679 27-437 isoform P02679-2 partner limits assumed): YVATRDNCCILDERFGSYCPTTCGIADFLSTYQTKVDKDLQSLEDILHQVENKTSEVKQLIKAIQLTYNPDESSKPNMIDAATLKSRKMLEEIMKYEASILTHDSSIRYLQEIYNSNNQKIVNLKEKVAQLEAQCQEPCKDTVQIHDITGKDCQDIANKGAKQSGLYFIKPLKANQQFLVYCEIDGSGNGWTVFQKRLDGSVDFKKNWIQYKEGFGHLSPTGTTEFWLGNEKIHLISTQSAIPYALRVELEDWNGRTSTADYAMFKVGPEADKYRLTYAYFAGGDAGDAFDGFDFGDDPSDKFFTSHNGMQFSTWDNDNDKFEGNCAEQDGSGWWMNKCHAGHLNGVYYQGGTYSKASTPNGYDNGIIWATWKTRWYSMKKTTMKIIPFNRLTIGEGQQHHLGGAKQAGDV
The experiment in a line: Factor XIIIa-mediated incorporation of FITC-labeled thymosin β4 into fibrinogen (spectrophotometric). It is filed as biochemical. As for the experimental part:
Reactions of incorporation of FITC-labeled and unlabeled thymosin β4 into fibrinogen and fibrin were performed in Eppendorf tubes containing a mixture of fibrinogen at 3 mg/mL (9 μM) and thymosin β4 or FITC-labeled thymosin β4 at […] (30 μM) in 100 μL TBS with 2.5 mM CaCl2. The reactions were initiated by addition of FXIIIa(Ca) or FXIIIa(Thr) to final concentration of 30 μg/mL. The final concentration of thrombin in the FXIIIa(Thr)-containing mixtures was made at 2.5 NIH u/mL, sufficient to rapidly form fibrin clot which was observed visually. The reactions with FITC-labeled thymosin β4 lasted for 4 hours at 37° C. in the dark and were stopped by heat inactiviation of the enzymes in boiling water for 5 min during fibrinogen and fibrin denatured and precipitated. The pellets were centrifuged and washed 3 times in TBS and then solubilized. The amounts of fibrin(ogen) and FITC-labeled thymosin β4 in the solubilized pellet were determined spectrophotomertrically using absorption molar coefficients E280,1%=15.0 and ε495=72,000 M^−1cm^−1, respectively. To prepare samples with unlabeled thymosin β4 for analysis by SDS-PAGE and Western blot the reaction mixtures at the indicated time were heat-inactivated as above and solubilized by addition of sample buffer (Invitrogen) containing SDS and reducing agent.

Turning to thymosin β4, for the setting “fibrinogen 9 μM, thymosin β4 30 μM, factor XIIIa, 4 hours, 37° C.”, the “degree of incorporation into fibrinogen” value came to 0.2 moles per mole. Also, where the note is “physiological concentrations of fibrin(ogen) and factor XIII”, the “molar incorporation ratio of thymosin β4 to fibrinogen” value came out at 0.2.
